B1: TPR t1 (parent)
chain: GACCAAUCUGCCCUCAGAGCUCGAGAACAUCUUCGGAUGCAGAGGAGGCAGGCUUCGGUGGCGCGAUAGCGCCAACGUCCUCAACCUCCAAUGCAUCCCACCACAUGAUGAUGCCUGAAGAGCCUUGGUUUUUUG

Variants of: B1
Experiment: polymerase ribozyme fitness, log enrichment relative to wild type (log ratio); higher = more active; in vitro selection for triplet polymerase activity
Method in brief: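 The heterodimeric triplet polymerase ribozyme's subunits were each mutagenized into PCR-built libraries and transcribed. Every library was selected once, in triplicate, by annealing with a biotinylated primer, the partner subunit and triplets, incubating frozen at −7 °C, gel-excising extended constructs, capturing on streptavidin beads and running RT-PCR. Input and output libraries were Illumina-sequenced, with genotypes kept only at ≥10 input reads and ≥1 read per output. Fitness, from inverse-variance-weighted replicate averages, is the base-2 logarithm of genotype enrichment over wild-type enrichment.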

Variant | polymerase ribozyme fitness (log ratio)
G60A C76G | -2.57
U59C C123U | 1.16
G58A C72G C82A G110C G113A | -6.33
G58C C72U C123G G128A | 0.86
G58C C73A U81A C89A | -3.31
G58C U81A C123A | -0.0338
G60A C97G | -4.02
G60A C97A | -4.41
U59A C79U G110A A119C | -3.05
U59A U126C | -1.31
G58C A111G G120A | -1.36
G57U C72U | -0.387
G60A A111U | -3.16
G58A U125A | -0.652
G60A G63C G110A G135C | -6.16
G58C C62U U133A | -0.0723
U59A C72A | -1.18
G60A C72G C101U | -1.15
G57U C62G | -1.62
U59A C82U A111G | -0.386
G60A G120C G128U | 0.061
G57U C73U G127U | -1.28
G60A A95G C104A U132C | -2.06
U59A C82G | -0.809

Variant | polymerase ribozyme fitness (log ratio)
U59A C82U | -0.407
U59A G71A C101U C124A | 1.02
G60A G120A | 0.658
G60A A74G | -2.01
G58A G60A A68G A100U C115A | -5.02
G58U U106C C124U U130A | -0.269
G60A C88G G120C | -0.823
G58A G117A G120A U132C | -3.08
U59G C73U U87G U116A | -4.15
G60A C73G G110A U112C | -2.14
G57C U92G G117A | -3.55
G57C C104U G110C U131A | -4.01
G57C G61C C88G G113U U116C A121U | -6.29
G58C G71U C82G C88G | -2.93
G58U C86U G110U G122A | -3.85
G57U U87A | -0.845
G57U U87G | 0.0269
G58C G60U G93U U96G | -1.73
G57U G120C | 0.593
G57U U129G | -1.65
G57U G60A C80U G122U | -2.06
G60A C98U | -0.842
G60A C85U | -0.816
G57C C89A A95G A111U A121U | -2.97

Variant | polymerase ribozyme fitness (log ratio)
G58A C89G | -2.2
G57U C99A C124A | -4.71
G57C U78C | 0.0872
G60A C82A C85A G120A | -0.412
G60A G71U | -4.5
G58A C72U | 0.786
G60A C82U U131A | -0.161
G58A C72G G127A | -1.35
G60A C80U C89U U129G | -3.44
U59A A91G A100U G113A | -3.07
G58A C99U | -2.8
G58C U116C | -0.944
G58A U109A | -4.85
G58C C62A G69U A119U | -0.99
G60A G117A | -1.29
U59C C62U C85A C115U | -2.93
G57C G60U C88A U106A | -0.528
G60A C115A G117A | -4.99
G60A G127A | -0.964
G57U C72A C88U | -1.77
G57C G61A | -1.82
G58C C123G G128A | 0.535
U59C G120C G128U U130A | 1.03
G57C G93U A111U G113C C114A C115U U125A | -7.73

Variant | polymerase ribozyme fitness (log ratio)
U59G C76U G110U | -2.81
U59G U81A | -0.876
U59G U78A | 0.3
U59A C64U C85A G110U U133C | -2.9
G58C G113U | -2.87
G57C U116A | -2.89
U59A A105C U112C | -0.41
G57U U87A C89G C104U | -4.28
G57U C70U C89U | -1.44
U59A A121C | 2.1
G60A G61C U92C G113A | -3.6
G58C A66G | -0.999
G60A A95U | -0.238
G60A A95G | -0.00276
G60A C104A | -1.89
U59G G120U C124U | 1.23
G60A C73G A108U | -5.92
G60A G110A | -1.52
G60A G113C | -2.12
U59A G61U G117U | -2.27
U59A C80U | -0.689
G57U C89U | -0.78
U59G C101G C114U | -2.59
U59A U81A G107A C114U | -2.96

Variant | polymerase ribozyme fitness (log ratio)
G60A C73A A91C G113U | -3.43
G57C U106A | -0.376
G60A C80A G113C | -6.39
G58A A83C | -0.717
G60A A84U C115A U131G | -0.704
G58C U112C A121G | 1.44
U59A U129G | -1.18
U59A U116G G120C | -0.387
G60A C80G | -4.53
G60A C80A | -3.69
G58U A75U C79A C89A G120C C123U | -4.72
G60A C89U C124A | 0.913
G58U G63A C94U | -0.678
G57U A84U G110A | -2.32
U59A A105G G113A U130C G135U | -5.1
G57U C64U U78G C88A C98U U131C | -2.15
G58C U59G C70A C86G | -2.75
U59A C104A | -1.75
U59G C97A | -4.8
G58A C70G G120A U129A | -3.9
U59A C70U U112A | 0.172
G60A A118C | -3.63
U59G C88U | 0.0468
U59G C72G | -2.51

Variant | polymerase ribozyme fitness (log ratio)
G57U A121U | 1.92
G60A G69U A121C G122U | -0.0689
U59G C80A A121C | -0.276
U59C C79U C114U | -1.91
U59G U78C C115U U130C | -1.13
U59A C86G C98U | -3.38
G58U G60C G117U C123A | -2.45
G58C C86A C115U | -2.72
G57C G61A G110U C115A | -2.7
G57U C73G | -0.228
U59G G113A | -1.96
G60A C80U C89U | -2.13
G58C C94A | -0.207
U59A C72U A83C | -0.884
G58C C85U G120A | 0.436
U59A A74G C114G U126A G128A | -3.97
G57C G69A | -3
G58U U59A A74U C88A | -0.539
G58A G61U | -0.422
G60A G107U | -4.12
G60A G107A | -2.9
G57U C82G | 0.0757
U59A G71A A91G A100U G113A | -4.54
U59G A68G | -3.01

Variant | polymerase ribozyme fitness (log ratio)
G60A C79U C80A A121G | -3.77
G60A G69C C80G G110U G120C | -6.82
G58A G60A C99U U130A | -5.34
G58C C80A U96G | -4.46
G58C G61A U92C | -1.98
G57U C62A U125A | -4.41
G58C C72U | -0.231
G58C G63C C82A U106G G113U | -5.77
U59A C62U | 0.252
G57U C88A | -1.1
G57U C88G | -1.99
G60A G61C G110C | -5.74
G60A G93C | -1.2
U59A G60U C89G C97U | -2.98
G57U U112A | 1.54
G57U G69U C115U G128A | -1.11
G57C C73U C101A A111C | -0.202
G58A C102U C114A | -4.78
G57U C94A C98U C115U | -5.64
G57U C82A C123U | 0.32
G57C G93A | -0.552
G58U C124A | 1.26
G57U G71U U87G | -0.217
